Each block holds one substance with its values, some of them ahead of it.
Tests used:
Assay in all cases: liposome recruitment assay (liposome flotation, gel band quantification)
[1] = target: Sec23–Sec24 complex (WT), P15303;P40482; conditions: GMP-PNP, 400 nm unilamellar liposomes, read off a plot
[2] = target: Sec13–Sec31 complex (WT), Q04491;P38968; conditions: GMP-PNP; 400 nm unilamellar liposomes; parent: est. 1.1; read off a plot
Sar1 = Sar1 (UniProt P20606); conditions: GMP-PNP; 400 nm unilamellar liposomes; parent: est. 0.98; read off a plot
Sequence of Sar1 (P20606 whole entry): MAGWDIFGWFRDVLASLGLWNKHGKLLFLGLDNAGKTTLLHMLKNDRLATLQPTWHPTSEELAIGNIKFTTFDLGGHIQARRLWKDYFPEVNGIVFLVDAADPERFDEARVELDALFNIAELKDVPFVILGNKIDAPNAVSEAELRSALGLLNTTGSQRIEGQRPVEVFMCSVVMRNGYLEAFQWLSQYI

Sequence of Sec13–Nhis-Sec31 complex (Q04491 whole entry, stated change not applied): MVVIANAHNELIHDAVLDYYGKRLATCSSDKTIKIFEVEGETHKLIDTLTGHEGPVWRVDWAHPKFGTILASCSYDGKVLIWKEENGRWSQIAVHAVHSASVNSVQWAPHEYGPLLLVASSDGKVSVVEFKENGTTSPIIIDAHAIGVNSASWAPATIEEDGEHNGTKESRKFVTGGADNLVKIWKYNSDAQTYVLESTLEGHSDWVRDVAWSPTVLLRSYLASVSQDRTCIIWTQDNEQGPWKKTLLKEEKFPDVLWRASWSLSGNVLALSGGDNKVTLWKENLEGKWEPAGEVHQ
Sequence of Sec13–Nhis-Sec31 complex (P38968 whole entry, stated change not applied): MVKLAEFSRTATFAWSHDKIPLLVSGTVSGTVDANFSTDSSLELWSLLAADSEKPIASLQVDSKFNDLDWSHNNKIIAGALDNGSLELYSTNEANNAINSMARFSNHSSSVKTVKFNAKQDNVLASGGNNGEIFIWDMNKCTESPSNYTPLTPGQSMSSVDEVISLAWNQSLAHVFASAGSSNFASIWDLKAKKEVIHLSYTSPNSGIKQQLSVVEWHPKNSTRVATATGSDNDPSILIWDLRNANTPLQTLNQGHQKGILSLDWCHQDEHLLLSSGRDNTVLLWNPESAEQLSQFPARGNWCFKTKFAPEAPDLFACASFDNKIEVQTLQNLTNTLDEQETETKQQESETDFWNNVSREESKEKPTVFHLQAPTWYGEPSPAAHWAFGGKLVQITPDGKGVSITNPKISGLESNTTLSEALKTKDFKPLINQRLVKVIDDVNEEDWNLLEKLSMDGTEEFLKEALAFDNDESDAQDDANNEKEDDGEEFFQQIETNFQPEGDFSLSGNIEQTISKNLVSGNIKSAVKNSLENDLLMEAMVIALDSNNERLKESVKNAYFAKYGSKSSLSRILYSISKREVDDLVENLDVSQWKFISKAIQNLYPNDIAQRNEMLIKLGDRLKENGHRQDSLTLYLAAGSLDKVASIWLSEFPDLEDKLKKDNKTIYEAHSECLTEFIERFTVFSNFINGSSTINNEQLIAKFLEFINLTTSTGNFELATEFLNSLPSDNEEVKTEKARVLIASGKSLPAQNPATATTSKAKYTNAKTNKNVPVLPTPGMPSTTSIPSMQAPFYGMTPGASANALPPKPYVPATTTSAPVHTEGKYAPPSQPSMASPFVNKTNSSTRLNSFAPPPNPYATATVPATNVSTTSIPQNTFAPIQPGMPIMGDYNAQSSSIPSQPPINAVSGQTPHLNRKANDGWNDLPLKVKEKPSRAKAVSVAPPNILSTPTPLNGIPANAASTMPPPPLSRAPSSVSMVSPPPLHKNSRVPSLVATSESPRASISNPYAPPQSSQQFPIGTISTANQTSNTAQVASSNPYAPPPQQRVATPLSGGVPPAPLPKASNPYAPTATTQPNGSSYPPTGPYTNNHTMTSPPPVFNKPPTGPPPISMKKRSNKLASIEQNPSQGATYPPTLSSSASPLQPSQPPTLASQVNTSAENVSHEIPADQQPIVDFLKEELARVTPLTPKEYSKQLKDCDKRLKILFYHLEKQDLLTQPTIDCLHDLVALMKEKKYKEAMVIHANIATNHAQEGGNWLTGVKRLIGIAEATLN
Sequence of Sec13–Sec31 complex (WT) (Q04491 whole entry, stated change not applied): as the sequence (Q04491 whole entry, stated change not applied) above
Sequence of Sec13–Sec31 complex (WT) (P38968 whole entry, stated change not applied): as the sequence (P38968 whole entry, stated change not applied) above
Sequence of Sec23–Sec24 complex (WT) (P15303 whole entry, stated change not applied, the tested form may be a part): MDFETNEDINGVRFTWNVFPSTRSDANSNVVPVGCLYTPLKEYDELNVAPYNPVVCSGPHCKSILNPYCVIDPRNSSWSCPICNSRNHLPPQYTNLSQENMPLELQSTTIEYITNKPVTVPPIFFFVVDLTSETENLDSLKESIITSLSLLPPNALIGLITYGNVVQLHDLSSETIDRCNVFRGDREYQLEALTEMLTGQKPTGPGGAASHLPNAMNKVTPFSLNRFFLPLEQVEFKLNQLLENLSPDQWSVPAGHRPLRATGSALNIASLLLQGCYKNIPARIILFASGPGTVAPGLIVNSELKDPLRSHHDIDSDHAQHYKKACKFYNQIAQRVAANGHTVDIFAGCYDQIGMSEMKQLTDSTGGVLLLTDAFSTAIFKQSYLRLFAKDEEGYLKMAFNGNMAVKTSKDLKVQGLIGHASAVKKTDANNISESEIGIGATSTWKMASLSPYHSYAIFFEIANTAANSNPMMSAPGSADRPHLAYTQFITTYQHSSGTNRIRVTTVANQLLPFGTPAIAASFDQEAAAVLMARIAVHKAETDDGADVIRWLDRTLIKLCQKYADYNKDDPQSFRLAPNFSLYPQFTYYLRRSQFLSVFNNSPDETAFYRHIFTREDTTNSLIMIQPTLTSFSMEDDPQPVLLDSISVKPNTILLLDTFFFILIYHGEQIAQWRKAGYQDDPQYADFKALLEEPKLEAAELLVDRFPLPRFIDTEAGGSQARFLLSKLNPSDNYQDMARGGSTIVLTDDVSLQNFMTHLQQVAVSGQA
Sequence of Sec23–Sec24 complex (WT) (P40482 whole entry, stated change not applied, the tested form may be a part): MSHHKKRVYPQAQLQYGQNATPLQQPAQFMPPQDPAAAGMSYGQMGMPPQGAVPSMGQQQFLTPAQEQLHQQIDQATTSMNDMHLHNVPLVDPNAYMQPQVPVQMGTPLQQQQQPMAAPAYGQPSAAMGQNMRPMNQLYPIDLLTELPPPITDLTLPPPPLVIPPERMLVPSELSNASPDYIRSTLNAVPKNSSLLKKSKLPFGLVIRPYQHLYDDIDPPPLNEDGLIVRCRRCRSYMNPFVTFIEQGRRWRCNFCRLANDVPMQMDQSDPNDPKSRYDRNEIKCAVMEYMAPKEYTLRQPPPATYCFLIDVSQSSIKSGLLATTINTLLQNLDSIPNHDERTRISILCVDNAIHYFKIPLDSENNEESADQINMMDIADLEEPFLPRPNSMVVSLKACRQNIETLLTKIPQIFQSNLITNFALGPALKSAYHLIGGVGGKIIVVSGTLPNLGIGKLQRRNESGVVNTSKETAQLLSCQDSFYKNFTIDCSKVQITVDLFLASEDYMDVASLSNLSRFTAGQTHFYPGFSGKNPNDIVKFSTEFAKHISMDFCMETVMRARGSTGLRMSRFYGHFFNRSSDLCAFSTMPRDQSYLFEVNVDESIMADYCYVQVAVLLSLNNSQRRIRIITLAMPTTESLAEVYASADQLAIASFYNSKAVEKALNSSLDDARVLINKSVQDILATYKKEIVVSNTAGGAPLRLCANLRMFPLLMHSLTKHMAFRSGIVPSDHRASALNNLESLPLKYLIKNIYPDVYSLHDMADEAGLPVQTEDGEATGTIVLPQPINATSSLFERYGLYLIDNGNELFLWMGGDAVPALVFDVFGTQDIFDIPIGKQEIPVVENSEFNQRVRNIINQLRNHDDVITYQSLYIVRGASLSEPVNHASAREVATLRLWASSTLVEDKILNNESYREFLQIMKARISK

other: Ratio Sec31:Sec23 ([1]; parent: est. 0.91): 0.91
Substance: Sec13–Nhis-Sec31 complex (from UniProt Q04491;P38968) ΔPPP (glycine/serine substitution of all six PPP motifs plus an additional PPAP motif; residues not printed)

other: Ratio Sec31:Sec23 ([1]; parent: est. 1.1): 1.2
Substance: Sec13–Sec31 complex (WT) (from UniProt Q04491;P38968) ΔPPP (glycine/serine substitution of all six PPP motifs plus an additional PPAP motif; residues not printed)

other: Protein ratio Sec31:Sec23 [2]: 0.43
other: Protein ratio Sec23:Sar1 (Sar1): 1.1
Substance: Sec23–Sec24 complex (WT) (from UniProt P15303;P40482) Δcharge (charge reversal of a negatively charged surface adjacent to the gelsolin domain of Sec23; residues not printed)
